Consider 2 molecules from article PMC5828395 (Genes & Development, 2018).

Where no end group is shown, it is not given here.

The target of assay [1] is GAS41 YEATS domain (amino acids 15–159) (human) (UniProt O95619). In words: ITC. In general terms: In ITC the heat of successive injections is recorded.
For assay [2], the target named is GAS41 YEATS domain (amino acids 15–159) (human, UniProt O95619 15-159). As to the kind of experiment: ITC.
GAS41 YEATS domain (amino acids 15–159), sequence (O95619 15-159): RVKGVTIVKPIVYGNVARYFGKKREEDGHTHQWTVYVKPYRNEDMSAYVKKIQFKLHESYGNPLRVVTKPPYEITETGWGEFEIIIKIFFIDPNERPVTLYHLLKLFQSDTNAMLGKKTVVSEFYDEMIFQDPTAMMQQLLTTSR

GAS41 YEATS domain (amino acids 15–159) (human), sequence (O95619 15-159): as above

Consider “H3_(15–39)K27ac peptide (from UniProt P68431 16-40)”, for which, in assay [1], the Kd (usually the concentration at which binding is half-saturated) stood at 32.7 µM. In turn, ARTKQTARKSTGGK(Ac)A (peptide, UniProt P68431 2-16, looked up) [H3_(1–15)K14ac peptide] showed a dissociation constant Kd in assay [2] of 13 µM. In other words, the double-digit micromolar range.
